In patent US11827699 (dated 2023):

T1: human FcγRIIb (human, UniProt P31994)
T1 chain: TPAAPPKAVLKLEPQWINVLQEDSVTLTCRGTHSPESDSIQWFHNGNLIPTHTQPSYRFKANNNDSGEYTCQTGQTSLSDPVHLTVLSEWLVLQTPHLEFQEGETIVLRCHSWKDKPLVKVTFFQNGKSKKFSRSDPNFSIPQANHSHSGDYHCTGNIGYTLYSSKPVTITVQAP

T2: human FcγRIIa H131 (human, UniProt P12318)
T2 chain: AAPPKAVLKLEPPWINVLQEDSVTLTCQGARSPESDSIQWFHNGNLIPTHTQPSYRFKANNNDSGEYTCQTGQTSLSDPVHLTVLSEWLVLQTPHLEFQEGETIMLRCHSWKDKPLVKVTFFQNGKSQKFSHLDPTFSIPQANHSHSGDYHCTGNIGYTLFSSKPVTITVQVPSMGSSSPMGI

T3: human FcγRIa (human, UniProt P12314)
T3 chain: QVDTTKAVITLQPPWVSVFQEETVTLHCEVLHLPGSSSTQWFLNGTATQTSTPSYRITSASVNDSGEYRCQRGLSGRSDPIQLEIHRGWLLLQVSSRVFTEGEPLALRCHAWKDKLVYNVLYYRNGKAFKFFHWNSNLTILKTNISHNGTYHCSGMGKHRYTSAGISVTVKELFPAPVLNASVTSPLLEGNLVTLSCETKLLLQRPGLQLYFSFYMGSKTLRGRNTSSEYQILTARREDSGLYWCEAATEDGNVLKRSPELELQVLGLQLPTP

T4: human FcγRIIa R131 (human, UniProt P12318)
T4 chain: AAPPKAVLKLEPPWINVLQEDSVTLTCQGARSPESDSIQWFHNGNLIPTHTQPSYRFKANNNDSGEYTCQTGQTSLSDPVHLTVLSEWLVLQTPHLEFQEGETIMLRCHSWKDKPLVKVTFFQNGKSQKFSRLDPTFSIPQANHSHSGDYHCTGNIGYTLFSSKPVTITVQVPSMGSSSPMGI


Experiments:
Assay in all cases: SPR
[1] = biological target: T1, human FcγRIIb
[2] = biological target: T2, human FcγRIIa H131
[3] = biological target: T3, human FcγRIa
[4] = biological target: T4, human FcγRIIa R131
[5] = biological target: human FcγRIIIa V158 (human, UniProt P08637)
human FcγRIIIa V158, sequence (P08637 17-208 F176V): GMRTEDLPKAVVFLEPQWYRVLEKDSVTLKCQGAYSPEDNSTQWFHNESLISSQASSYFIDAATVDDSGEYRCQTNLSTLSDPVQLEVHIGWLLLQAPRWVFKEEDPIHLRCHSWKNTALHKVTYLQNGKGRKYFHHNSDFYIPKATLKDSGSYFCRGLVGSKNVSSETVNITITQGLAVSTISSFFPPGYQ

Binder | Kd [1] [nM] | Kd [2] [nM] | Kd [3] [nM] | Kd [4] [nM] | Kd [5] [nM]
IL6R-BP489 (antibody) chain 1: QVQLQESGPGLVKPSETLSLTCAVSGHSISHDHAWSWVRQPPGEGLEWIGFISYSGITNYNPSLQGRVTISRDNSKNTLYLQMNSLRAEDTAVYYCARSLARTTAMDYWGEGTLVTVSSASTKGPSVFPLAPSSKSTSGGTAALGCLVKDYFPEPVTVSWNSGALTSGVHTFPAVLQSSGLYSLSSVVTVPSSSLGTQTYICNVNHKPSNTKVDKKVEPKSCDKTHTCPPCPAPDLLGDDSVFLFPPKPKDTLMISRTPEVTCVVIDVAEEDGEVKFNWYVDGVEVHNAKTKPREEQDNSTYRVVSVLTVLHQDWLNGKEYKCKVSNKALPRPIEKTISKAKGQPREPQVYTLPPSRDELTKNQVSLTCLVKGFYPSDIAVEWESNGQPENNYKTTPMVLDSDGSFFLYSKLTVDKSRWQQGNVFSCSVMHEALHNHYTQESLSLSP chain 2: not shown | 1 | 870 | 1.3 | 43 | 12000
IL6R-BP499 (antibody) chain 1: QVQLQESGPGLVKPSETLSLTCAVSGHSISHDHAWSWVRQPPGEGLEWIGFISYSGITNYNPSLQGRVTISRDNSKNTLYLQMNSLRAEDTAVYYCARSLARTTAMDYWGEGTLVTVSSASTKGPSVFPLAPSSKSTSGGTAALGCLVKDYFPEPVTVSWNSGALTSGVHTFPAVLQSSGLYSLSSVVTVPSSSLGTQTYICNVNHKPSNTKVDKKVEPKSCDKTHTCPPCPAPDLLGDDSVFLFPPKPKDTLMISRTPEVTCVVIDVAEEDGEVKFNWYVDGVEVHNAKTKPREEQDNSTYRVVSVLTVLHQDWLNGKEYKCKVSNKALPRPIEKTISKAKGQPREPQVYTLPPSRDELTKNQVSLTCLVKGFYPSDIAVEWESNGQPENNYKTTPLVLDSDGSFFLYSKLTVDKSRWQQGNVFSCSVMHEALHNHYTQESLSLSP chain 2: not shown | 1.5 | 1000 | 1.2 | 49 | 12000
IL6R-BP505 (antibody) chain 1: QVQLQESGPGLVKPSETLSLTCAVSGHSISHDHAWSWVRQPPGEGLEWIGFISYSGITNYNPSLQGRVTISRDNSKNTLYLQMNSLRAEDTAVYYCARSLARTTAMDYWGEGTLVTVSSASTKGPSVFPLAPSSKSTSGGTAALGCLVKDYFPEPVTVSWNSGALTSGVHTFPAVLQSSGLYSLSSVVTVPSSSLGTQTYICNVNHKPSNTKVDKKVEPKSCDKTHTCPPCPAPDLLGDDSVFLFPPKPKDTLMISRTPEVTCVVIDVAEEDGDVKFNWYVDGVEVHNAKTKPREEQYNSTYRVVSVLTVLHQDWLNGKEYKCKVSNKALPAPIEKTISKAKGQPREPQVYTLPPSRDELTKNQVSLTCLVKGFYPSDIAVEWESNGQPENNYKTTPPVLDSDGSFFLYSKLTVDKSRWQQGNVFSCSVMHEALHNHYTQESLSLSP chain 2: not shown | 21 | 11000 | 1.1 | 430 | 38000
IL6R-BP504 (antibody) chain 1: QVQLQESGPGLVKPSETLSLTCAVSGHSISHDHAWSWVRQPPGEGLEWIGFISYSGITNYNPSLQGRVTISRDNSKNTLYLQMNSLRAEDTAVYYCARSLARTTAMDYWGEGTLVTVSSASTKGPSVFPLAPSSKSTSGGTAALGCLVKDYFPEPVTVSWNSGALTSGVHTFPAVLQSSGLYSLSSVVTVPSSSLGTQTYICNVNHKPSNTKVDKKVEPKSCDKTHTCPPCPAPDLLGDDSVFLFPPKPKDTLMISRTPEVTCVVIDVAEEDGPVKFNWYVDGVEVHNAKTKPREEQYNSTYRVVSVLTVLHQDWLNGKEYKCKVSNKALPAPIEKTISKAKGQPREPQVYTLPPSRDELTKNQVSLTCLVKGFYPSDIAVEWESNGQPENNYKTTPPVLDSDGSFFLYSKLTVDKSRWQQGNVFSCSVMHEALHNHYTQESLSLSP chain 2: not shown | 24 | 16000 | 1.4 | 450 | 34000
IL6R-BP483 (antibody) chain 1: QVQLQESGPGLVKPSETLSLTCAVSGHSISHDHAWSWVRQPPGEGLEWIGFISYSGITNYNPSLQGRVTISRDNSKNTLYLQMNSLRAEDTAVYYCARSLARTTAMDYWGEGTLVTVSSASTKGPSVFPLAPSSKSTSGGTAALGCLVKDYFPEPVTVSWNSGALTSGVHTFPAVLQSSGLYSLSSVVTVPSSSLGTQTYICNVNHKPSNTKVDKKVEPKSCDKTHTCPPCPAPDLLGDDSVFLFPPKPKDTLMISRTPEVTCVVVDLAEEDGEVKFNWYVDGVEVHNAKTKPREEQYNSTYRVVSVLTVLHQDWLNGKEYKCKVSNKALPAPIEKTISKAKGQPREPQVYTLPPSRDELTKNQVSLTCLVKGFYPSDIAVEWESNGQPENNYKTTPPVLDSDGSFFLYSKLTVDKSRWQQGNVFSCSVMHEALHNHYTQESLSLSP chain 2: not shown | 78 | 18000 | 1.3 | 1300 | 25000
IL6R-BP481 (antibody) chain 1: QVQLQESGPGLVKPSETLSLTCAVSGHSISHDHAWSWVRQPPGEGLEWIGFISYSGITNYNPSLQGRVTISRDNSKNTLYLQMNSLRAEDTAVYYCARSLARTTAMDYWGEGTLVTVSSASTKGPSVFPLAPSSKSTSGGTAALGCLVKDYFPEPVTVSWNSGALTSGVHTFPAVLQSSGLYSLSSVVTVPSSSLGTQTYICNVNHKPSNTKVDKKVEPKSCDKTHTCPPCPAPDLLGDDSVFLFPPKPKDTLMISRTPEVTCVVIDVAEEDGEVKFNWYVDGVEVHNAKTKPREEQYNSTYRVVSVLTVLHQDWLNGKEYKCKVSNKALPAPIEKTISKAKGQPREPQVYTLPPSRDELTKNQVSLTCLVKGFYPSDIAVEWESNGQPENNYKTTPPVLDSDGSFFLYSKLTVDKSRWQQGNVFSCSVMHEALHNHYTQESLSLSP chain 2: not shown | 19 | 6800 | 1 | 400 | 24000
IL6R-BP511 (antibody) chain 1: QVQLQESGPGLVKPSETLSLTCAVSGHSISHDHAWSWVRQPPGEGLEWIGFISYSGITNYNPSLQGRVTISRDNSKNTLYLQMNSLRAEDTAVYYCARSLARTTAMDYWGEGTLVTVSSASTKGPSVFPLAPSSKSTSGGTAALGCLVKDYFPEPVTVSWNSGALTSGVHTFPAVLQSSGLYSLSSVVTVPSSSLGTQTYICNVNHKPSNTKVDKKVEPKSCDKTHTCPPCPAPELLGDDSVFLFPPKPKDTLMISRTPEVTCVVIDVAEEDGPVKFNWYVDGVEVHNAKTKPREEQDNSTYRVVSVLTVLHQDWLNGKEYKCKVSNKALPRPIEKTISKAKGQPREPQVYTLPPSRDELTKNQVSLTCLVKGFYPSDIAVEWESNGQPENNYKTTPPVLDSDGSFFLYSKLTVDKSRWQQGNVFSCSVMHEALHNHYTQESLSLSP chain 2: not shown | 3.5 | 4300 | 6 | 180 | 71000
IL6R-BP445 (antibody) chain 1: QVQLQESGPGLVKPSETLSLTCAVSGHSISHDHAWSWVRQPPGEGLEWIGFISYSGITNYNPSLQGRVTISRDNSKNTLYLQMNSLRAEDTAVYYCARSLARTTAMDYWGEGTLVTVSSASTKGPSVFPLAPSSKSTSGGTAALGCLVKDYFPEPVTVSWNSGALTSGVHTFPAVLQSSGLYSLSSVVTVPSSSLGTQTYICNVNHKPSNTKVDKKVEPKSCDKTHTCPPCPAPDLLGDDSVFLFPPKPKDTLMISRTPEVTCVVIDVAEEDGEVKFNWYVDGVEVHNAKTKPREEQYNSTYRVVSVLTVLHQDWLNGKEYKCKVSNKALPRPIEKTISKAKGQPREPQVYTLPPSRDELTKNQVSLTCLVKGFYPSDIAVEWESNGQPENNYKTTPPVLDSDGSFFLYSKLTVDKSRWQQGNVFSCSVMHEALHNHYTQESLSLSP chain 2: not shown | 2.6 | – | 2 | 80 | 24000
